Assay results reported in patent publication CN111995685A (SHANGHAI INST MATERIA MEDICA CAS; UNIV XIAMEN, dated 2020).
Blank lines part the entries; values can stand above or below the binder they belong to.

What was measured:
抗原人源PD-1蛋白 [1] = target: T1, 抗原人源PD-1蛋白 (human, UniProt Q15116 25-167, limits assumed); test: ELISA (binding and PD-L1 blocking) and BLI with PD-1 antigen, IgG format
T1 construct: The construct is not described; also called 抗原PD-1; 抗原PD-1蛋白

抗原人源PD-1蛋白 [2] = target: T1, 抗原人源PD-1蛋白; test: ELISA of humanised Fab phage clones on PD-1 antigen

T1 sequence (Q15116 25-167 limits assumed): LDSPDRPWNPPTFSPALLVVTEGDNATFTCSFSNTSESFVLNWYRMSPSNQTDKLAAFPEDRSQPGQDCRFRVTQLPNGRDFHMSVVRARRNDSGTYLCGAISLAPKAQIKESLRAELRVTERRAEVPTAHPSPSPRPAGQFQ

binding result (抗原人源PD-1蛋白 [1]): binds
B1: T16# (antibody, V domains shown)
VH: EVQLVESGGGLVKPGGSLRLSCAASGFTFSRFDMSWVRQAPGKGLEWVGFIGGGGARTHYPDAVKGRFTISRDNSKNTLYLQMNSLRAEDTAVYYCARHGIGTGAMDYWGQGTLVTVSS
VL: ETTLTQSPAFMSATPGDKVNISCRASKSVDNYGYSFMHWYQQKPGQAPRLLIYRSANLASGVPDRFSGSGSGTDFTLKISRVEAEDVGVYYCQQSNEDPTFGGGTKLEIK
notes: also called 抗PD-1单抗T16#

binding result (抗原人源PD-1蛋白 [2]): binds
B2: T1# (antibody, V domains shown)
VH: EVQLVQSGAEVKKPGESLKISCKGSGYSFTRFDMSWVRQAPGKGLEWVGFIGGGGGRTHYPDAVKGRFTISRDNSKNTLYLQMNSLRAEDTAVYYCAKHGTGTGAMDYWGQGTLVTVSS
VL: EIVLTQSPGTLSLSPGERATLSCRASKSVDNYGYSFMHWYQQKPGQAPRLLIYRSANLASGVPSRFSGSGSGTDFTLTINSLEAEDAATYYCQQSNEDPTFGGGTKVEIK
notes: also called 抗PD-1单抗T1#; 人源化PD-1抗体T1#

binding result (抗原人源PD-1蛋白 [1]): binds
B3: T82# (antibody, V domains shown)
VH: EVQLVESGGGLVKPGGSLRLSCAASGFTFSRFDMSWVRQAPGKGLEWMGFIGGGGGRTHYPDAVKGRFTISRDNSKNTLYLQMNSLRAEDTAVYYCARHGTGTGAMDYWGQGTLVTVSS
VL: DIQMTQSPSTLSASVGDRVTISCRASKSVDNYGYSFMHWYQQKPGQAPRLLIYRSANLASGVPDRFSGSGSGTDFTLTISSLQAEDVAVYYCQQSNEDPTFGGGTKLEIK
notes: also called 抗PD-1单抗T82#
